Legend:
IL-1RAP = target: T1, IL-1RAP (Homo sapiens, UniProt Q9NPH3); experiment: Confocal microscopy on KU812 and Raji cell lines; format: binding; details: KU812 cells
T1 sequence (Q9NPH3 21-570): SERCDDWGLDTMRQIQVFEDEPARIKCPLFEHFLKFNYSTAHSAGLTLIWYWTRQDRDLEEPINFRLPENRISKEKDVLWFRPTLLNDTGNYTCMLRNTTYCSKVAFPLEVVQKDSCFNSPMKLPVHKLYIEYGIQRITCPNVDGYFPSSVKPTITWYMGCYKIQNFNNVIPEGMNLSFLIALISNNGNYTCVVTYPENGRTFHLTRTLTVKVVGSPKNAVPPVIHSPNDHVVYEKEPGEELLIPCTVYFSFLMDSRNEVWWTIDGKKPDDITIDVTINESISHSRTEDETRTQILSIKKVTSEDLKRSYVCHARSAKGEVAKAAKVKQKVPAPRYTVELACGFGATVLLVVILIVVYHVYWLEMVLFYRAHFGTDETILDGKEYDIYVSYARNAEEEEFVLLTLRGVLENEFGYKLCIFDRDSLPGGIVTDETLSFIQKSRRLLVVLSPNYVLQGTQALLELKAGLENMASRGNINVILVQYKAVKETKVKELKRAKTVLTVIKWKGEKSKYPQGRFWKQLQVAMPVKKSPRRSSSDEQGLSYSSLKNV
Method: FIG. 4: KU812 (a) and Raji cells lines (b) stained with Fluorescence mAbs [(left panel: anti murine Fc-IgG; medium panel: IL-1RAP (#E3C3)]. Counterstaining was performed by nuclear stain DAPI and superposed to Fluorescent staining (right panel, merge).
Confocal microscopy was assessed on KU812 and Raji cells lines concentrated on slides (Superfrost™ Plus, 4951PLUS4, ThermoFisher Scientific) by Cytospin. Briefly, the cells were stained with Fluorescent monoclonal antibodies: anti murine Fc-IgG; IL-1RAP (#E3C3) and were analyzed with an Olympus BX51 microscope equipped with a QImaging Retiga 2000R camera. Digital images were acquired using the 40× objective and digitalized with Image-Pro Plus (version 6.0, Media Cybernetics). Counterstaining was performed by nuclear stain DAPI (2-(4-Amidinophenyl)-6-indolecarbamidine dihydrochloride, Sigma-Aldrich-France) and superposed to fluorescent staining.

[1] = target: T2, IL-1RAP recombinant protein (Homo sapiens, UniProt Q9NPH3); experiment: ELISA against recombinant IL-1RAP protein; format: binding; details: BSA negative control
T2 construct: recombinant fusion protein consisting of the extra cellular part of IL-1RAP (NM_002182.2, NCBI) and the Fc-part of human IgG1; purchased R&D Systems
T2 sequence (Q9NPH3 21-367 limits assumed): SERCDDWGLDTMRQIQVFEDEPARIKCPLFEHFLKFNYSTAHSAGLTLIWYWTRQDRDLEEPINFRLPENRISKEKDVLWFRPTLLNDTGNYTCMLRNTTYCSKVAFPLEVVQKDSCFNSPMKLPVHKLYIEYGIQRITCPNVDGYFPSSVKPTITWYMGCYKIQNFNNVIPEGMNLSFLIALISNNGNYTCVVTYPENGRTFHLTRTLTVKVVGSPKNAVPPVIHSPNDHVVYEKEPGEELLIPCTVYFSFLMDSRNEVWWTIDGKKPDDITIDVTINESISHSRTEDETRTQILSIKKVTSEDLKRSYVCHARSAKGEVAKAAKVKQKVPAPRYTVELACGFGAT
Excerpt: FIG. 2: recognition of IL-1RAP recombinant protein with #E3C3 mAb by the ELISA technique (b). BSA is the negative control (a).
Anti-human Fc antibody was coated on a bottom of a plastic ELISA plate.

[2] = system: HMEC-1 endothelial cell line; experiment: Staining of HMEC-1 dermal endothelial cell line; format: binding, human; details: flow cytometry staining
Excerpt: FIG. 22: (A) Tissue microarray. Representative #A3C3 staining of an US Food and Drug Administration standard frozen tissue array, including 90 tissue cores (30 organs) of 3 individual donors per organ (US Biomax, Rockville, MD, USA). Immunostaining was detected using the UltraView Universal DAB Detection Kit (Ventana, USA). Images were acquired and analyzed with NDP.view 2.0 software. […] (Scale bars, 100 μm.) High IL-1RAP (KU812)— or negative (Raji)-expressing cell lines were respectively used as positive or negative controls. (B) IL-1RAP R&D (red) or #A3C3 (blue) staining of HMEC-1 dermal endothelial cell line. Isotype IgG1 (gray) is depicted as overlay. RFI is provided for both staining.

staining pattern by confocal microscopy (IL-1RAP): cell membrane staining
B1: #E3C3: mouse anti-hIL-1RAP monoclonal antibody subclone generated by standard hybridoma technique; VH SEQ ID NO: 2, VL SEQ ID NO: 4 (antibody, V domains shown)
VH: MGWSCIILFLVATATGVNSQVQLQQPGAELMMPGASVKVSCEASGYTFTDSWMHWVKQRPGQGLEWIGAIDPSDSYTTYNQKFTGKATLSVDESSNTAYMQLSSLTSEDSAVYYCARYYSGSNYISPFPYWGQGTLVTVSA
VL: MESQIQVFVFVFLWLSGVDGDIVMTQSHKFMSTSVGDRVTITCKASLDVSTAVAWYQQKPGQSPKLLIYSASYRYTGVPDRFTGSGSGTDFTFTISSVQAEDLAVYYCQQHYSPPFTFGSGTNLEIK
modifications: Amino acid sequence of chain H (VH) of murine scFv anti-IL-1RAP; Amino acid sequence of chain K (VL) of murine scFv anti-IL-1RAP
recognition of IL-1RAP recombinant protein by ELISA [1]: recognize the IL-1RAP recombinant protein
recognition of HMEC-1 cell surface [2]: not recognized
